Paper PMC5813103, “Hydroxynitrile lyases from cyanogenic millipedes: molecular cloning, heterologous expression, and whole-cell biocatalysis for the production of (R)-mandelonitrile” (Scientific Reports, 2018)

Target: Hydroxynitrile lyase from Nedyopus tambanus tambanus (NttHNL) (Nedyopus tambanus tambanus)
Test: SEC; gel filtration of the purified native enzyme; Superdex 200 10/300 equilibrated with PBS; native 52400 Da against 28800 Da on SDS-PAGE

Q: How did the stoichiometry N turn out when “Hydroxynitrile lyase from Nedyopus tambanus tambanus (NttHNL) (enzyme)” was run?
A: 2
